Reference: IntAct's records for PubMed 31663849

B1: Secretagogin (Homo sapiens), O76038 (parent)
chain: MDSSREPTLGRLDAAGFWQVWQRFDADEKGYIEEKELDAFFLHMLMKLGTDDTVMKANLHKVKQQFMTTQDASKDGRIRMKELAGMFLSEDENFLLLFRRENPLDSSVEFMQIWRKYDADSSGFISAAELRNFLRDLFLHHKKAISEAKLEEYTGTMMKIFDRNKDGRLDLNDLARILALQENFLLQFKMDACSTEERKRDFEKIFAYYDVSKTGALEGPEVDGFVKDMMELVQPSISGVDLDKFREILLRHCDVNKDGKIQKSELALCLGLKINP

Variants of: B1
Details: with snp25_mouse Snap25, P60879
snp25_mouse Snap25, P60879, sequence (P60879 whole entry, looked up): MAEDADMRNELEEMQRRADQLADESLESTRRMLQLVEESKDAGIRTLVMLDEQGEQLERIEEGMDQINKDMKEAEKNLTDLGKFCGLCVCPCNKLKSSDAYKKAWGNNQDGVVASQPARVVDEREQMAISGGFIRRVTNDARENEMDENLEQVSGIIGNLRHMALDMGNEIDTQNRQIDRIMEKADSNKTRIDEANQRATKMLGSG

Row | Variant | effect of a mutation on the interaction
1 | R77H | with no effect
